According to patent publication US20130115166A1 (CEPHALON AUSTRALIA, published 2013):

T1: IL-23 (HEK293E-derived) (human, UniProt P29460 23-328; Q9NPF7 20-189)
T1 sequence 1: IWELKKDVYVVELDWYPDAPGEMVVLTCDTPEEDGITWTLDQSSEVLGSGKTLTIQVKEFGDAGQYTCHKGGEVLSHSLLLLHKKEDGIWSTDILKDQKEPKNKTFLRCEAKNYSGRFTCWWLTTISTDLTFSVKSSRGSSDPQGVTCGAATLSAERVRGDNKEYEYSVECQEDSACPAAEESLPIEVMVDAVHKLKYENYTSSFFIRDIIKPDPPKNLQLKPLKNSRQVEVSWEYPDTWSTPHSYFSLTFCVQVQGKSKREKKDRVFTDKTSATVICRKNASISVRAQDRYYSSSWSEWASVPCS
T1 sequence 2: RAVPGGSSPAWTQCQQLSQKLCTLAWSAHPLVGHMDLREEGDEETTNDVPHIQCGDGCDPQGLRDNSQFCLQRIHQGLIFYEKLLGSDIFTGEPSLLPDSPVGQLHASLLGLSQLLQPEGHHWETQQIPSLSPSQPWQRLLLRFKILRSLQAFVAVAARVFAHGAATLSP

T2: Human IL-23 (human, UniProt P29460 23-328; Q9NPF7 20-189)
T2 construct: Heterodimer of IL-12p40 covalently linked to IL-23p19, purchased (Ebiosciences or RnD Systems); also called hIL-23; rhIL23
T2 sequence 1: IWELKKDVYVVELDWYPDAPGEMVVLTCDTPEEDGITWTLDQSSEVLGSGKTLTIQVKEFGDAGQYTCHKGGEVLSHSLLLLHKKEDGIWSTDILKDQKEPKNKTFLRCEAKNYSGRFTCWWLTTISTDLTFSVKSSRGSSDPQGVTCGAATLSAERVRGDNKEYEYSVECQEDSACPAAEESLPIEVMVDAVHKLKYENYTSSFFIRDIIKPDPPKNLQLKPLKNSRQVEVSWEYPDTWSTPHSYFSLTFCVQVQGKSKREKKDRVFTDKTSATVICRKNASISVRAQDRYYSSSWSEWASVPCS
T2 sequence 2: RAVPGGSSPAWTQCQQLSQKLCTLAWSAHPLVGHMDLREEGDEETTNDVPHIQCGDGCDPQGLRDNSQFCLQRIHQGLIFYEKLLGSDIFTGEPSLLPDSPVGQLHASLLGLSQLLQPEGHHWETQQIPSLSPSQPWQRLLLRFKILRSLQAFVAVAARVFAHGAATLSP

T3: IL-12p40 (human, UniProt P29460 23-328)
T3 construct: also called IL-12p40 subunit
T3 sequence: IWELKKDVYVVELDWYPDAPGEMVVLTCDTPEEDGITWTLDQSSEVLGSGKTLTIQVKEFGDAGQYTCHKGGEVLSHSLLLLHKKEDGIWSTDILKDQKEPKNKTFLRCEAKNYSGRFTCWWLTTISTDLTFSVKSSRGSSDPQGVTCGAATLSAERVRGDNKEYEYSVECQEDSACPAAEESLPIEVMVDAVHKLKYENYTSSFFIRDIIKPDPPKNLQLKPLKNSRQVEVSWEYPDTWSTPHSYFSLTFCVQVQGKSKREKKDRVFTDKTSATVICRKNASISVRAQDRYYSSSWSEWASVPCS

T4: IL-23p19 (human, UniProt Q9NPF7 20-189)
T4 construct: also called IL-23p19 subunit
T4 sequence: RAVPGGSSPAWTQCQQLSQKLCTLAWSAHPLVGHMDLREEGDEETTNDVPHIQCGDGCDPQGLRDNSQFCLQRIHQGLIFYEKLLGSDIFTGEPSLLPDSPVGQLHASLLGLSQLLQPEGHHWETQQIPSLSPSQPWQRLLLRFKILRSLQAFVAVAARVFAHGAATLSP

B1: E11E7Chimera (antibody, human IgG1, kappa, V domains shown)
VH: QVQLKESGPGLVQPSQTLSLTCTVSGFSLISYNVHWVRQPRGKGLEWMGVIWTGGSTDYNSVLKSRLSISRDTSKSQVFLKMHSLQTEDIGTYYCARDKYGLFPGYFDYWGQGVMVTVSS
VL: DIVMTQSPFSLAVSEGEMVTINCKPSQSLLSSGNRKNYLAWYQQKPGQSPKLLIYYASTRQSGVPDRFIGSGSGTDFTLTISDVQAEDLADYYCLQHFNYPWTFGGGTKLELKR
notes: Rat E11E7 variable regions on human constant regions; also called E11E7 chimeric antibody
B2: 8-22 (antibody, human IgG1, kappa, V domains shown)
VH: QVQLQESGPGLVKPSETLSLTCTVSGFSLISYNVHWIRQPPGKGLEWIGVIWTGGSTDYNPSLKSRVTISRDTSKNQFSLKLSSVTAADTAVYYCARDKYGLFPGYFDYWGQGTLVTVSS
VL: DIVMTQSPDSLAVSLGERATINCKPSQSLLSSGNRKNYLAWYQQKPGQPPKLLIYYASTRQSGVPDRFSGSGSGTDFTLTISSLQAEDVAVYYCLQHFNYPWTFGQGTKLEIKR
notes: Humanized form of E11E7; also called humanized antibody 8-22
B3: 21-4 (antibody, human IgG1, kappa, V domains shown)
VH: EVQLQQWGAGLLKPSETLSLTCAVYGFSLISYNVHWIRQPPGKGLEWIGVIWTGGSTDYNSVLKSRVTISRDTSKNQFSLKLSSVTAADTAVYYCARDKYGLFPGYFDYWGQGTLVTVSS
VL: EIVLTQSPATLSLSPGERATLSCKPSQSLLSSGNRKNYLAWYQQKPGQAPRLLIYYASTRQSGIPDRFSGSGSGTDFTLTISRLEPEDFAVYYCLQHFNYPWTFGGGTKVEIKR
notes: Humanized form of E11E7; also called humanized antibody 21-4
B4: 1-4 (antibody, human IgG1, kappa, V domains shown)
VH: EVQLQQWGAGLLKPSETLSLTCAVYGGSFSSYNVHWIRQPPGKGLEWIGVIWTGGSTDYNSVLKSRVTISRDTSKNQFSLKLSSVTAADTAVYYCARDKYGLFPGYFDYWGQGTLVTVSS
VL: EIVLTQSPATLSLSPGERATLSCKPSQSLLSSGNRKNYLAWYQQKPGQAPRLLIYYASTRQSGIPDRFSGSGSGTDFTLTISRLEPEDFAVYYCLQHFNYPWTFGGGTKVEIKR
notes: Humanized form of E11E7; also called humanized antibody 1-4
B5: 20-4 (antibody, human IgG1, kappa, V domains shown)
VH: EVQLQQWGAGLLKPSETLSLTCAVYGFSLISYNVHWIRQPPGKGLEWIGVIWTGGSTDYNSVLKSRVTISVDTSKNQFSLKLSSVTAADTAVYYCARDKYGLFPGYFDYWGQGTLVTVSS
VL: EIVLTQSPATLSLSPGERATLSCKPSQSLLSSGNRKNYLAWYQQKPGQAPRLLIYYASTRQSGIPDRFSGSGSGTDFTLTISRLEPEDFAVYYCLQHFNYPWTFGGGTKVEIKR
notes: Humanized form of E11E7; also called humanized antibody 20-4
B6: 6-22 (antibody, human IgG1, kappa, V domains shown)
VH: QVQLQESGPGLVKPSETLSLTCTVSGFSISSYNVHWIRQPPGKGLEWIGVIWTGGSTDYNPSLKSRVTISRDTSKNQFSLKLSSVTAADTAVYYCARDKYGLFPGYFDYWGQGTLVTVSS
VL: DIVMTQSPDSLAVSLGERATINCKPSQSLLSSGNRKNYLAWYQQKPGQPPKLLIYYASTRQSGVPDRFSGSGSGTDFTLTISSLQAEDVAVYYCLQHFNYPWTFGQGTKLEIKR
notes: Humanized form of E11E7; also called humanized antibody 6-22

Columns and labels:
[1] = target: T1, IL-23 (HEK293E-derived); experiment: SPR (Biacore), antibody supernatant captured on Protein A, IL-23 at 5 ug/ml as analyte
Experimental: As a result of the humanization processes 22 humanized antibodies were produced and tested for their ability to bind human IL-23 (Table 4). Briefly, 2 mL transfections of the 22 humanized antibodies were screened for antibody expression level and binding activity via SPR. Protein A was immobilized onto FC1 and FC2 (or alternatively FC3 and FC4) of a CM5 research grade sensor chip using amine coupling, giving approximately 3000 RU. FC1 was used as a blank throughout the experiments. The experiments were run in HBS-P buffer (SPR). Antibody-containing cell culture supernatants were diluted in 10× HBS-P buffer at a ratio of 9:1. The diluted antibody was injected over FC2 at a flow rate of 20 μl/min. IL-23 (HEK293E-derived) was passed over the surface of FC1 and FC2 at a concentrations of 5 μg/ml as a kinetic injection with 5 min dissociation time across both
FC. Regeneration of the surface was performed using 10 mM Glycine, pH 1.5. The sensorgram data from FC2 were subtracted from FC1 and a buffer only control. […] The Sequence IDs of the variable heavy and light chains for each antibody are given in the Table 4 along with kd (off-rates) of selected tested antibodies.

[2] = target: T2, Human IL-23; experiment: SPR (Biacore 3000), antibody captured on Protein A, IL-23 as analyte, 1:1 Langmuir fit
Experimental: (§1) Using a Biacore 3000, Protein A (Pierce) was immobilized on a CM5 chip using amine coupling chemistry to give 3000 Response Units (RU). Antibody was captured on the surface of the chip in flow cell 2 or 4 with a control surface in flow cell 1 or 3. Human IL-23 was then passed over both flow cells and the response units measured. The surface was then regenerated with 10 mM glycine pH 2.5. For a kinetic run this process was repeated with 5 dilutions of IL-23. Data was double referenced using an injection of running buffer before being fitted using a 1:1 Langmuir equation to determine ka, kd and KD.

[3] = target: T5, IL-12p40Fc (human); experiment: ELISA, coated human IL-12p40-Fc, biotinylated antibody, streptavidin-HRP, mOD at 450 nm [panel C]
T5 construct: also called human p40-Fc; human IL-12p40-Fc fusion protein

[4] = target: T6, IL-23Fc (human, UniProt Q9NPF7 20-189); experiment: ELISA, coated human IL-23 (IL-23Fc), biotinylated antibody, streptavidin-HRP, mOD at 450 nm [panel A]
T6 construct: Produced in HEK293E
Experimental: A NuncMaxisorp 96-well plate was coated with human IL-23 diluted to […] in carbonate coating buffer and overnight incubation at 4° C. The plate was washed (three times in 1×PBS-Tween20 (0.05%)) then blocked for an hour with 1% BSA in PBS at room temperature. Biotinylated antibody was prepared starting from 10 μg/ml and serial half log dilutions were performed then 100 μl was added to the plate and incubated for an hour. The plate was washed and Streptavidin-HRP at 1:2000 dilution was added to all wells and further incubated for an hour. The plate was washed and subsequently developed using TMB (Sigma). The color development reaction was stopped by addition of an equal volume of 1M HCl. Absorbance of the resulting reaction was determined using a plate-based spectrophotometer.

[5] = target: T2, Human IL-23; experiment: SPR (Biacore 3000), antibody captured on Protein A, IL-23 as analyte, 1:1 Langmuir fit; below the limit of sensitivity
Experimental: as §1

[6] = target: T2, Human IL-23; experiment: competition ELISA: biotinylated hIL-23 (100 ng/ml) pre-incubated with antibody, binding to coated hIL23R-HIS detected with streptavidin-HRP; blocked partner IL-23R
[7] = target: T3, IL-12p40; experiment: ELISA, coated antigen IL-12p40, mOD at 450 nm; blank = coating antigen omitted [panel 8-22]
[8] = target: T4, IL-23p19; experiment: ELISA, coated antigen IL-23p19, mOD at 450 nm; blank = coating antigen omitted [panel 8-22]
[9] = target: T3, IL-12p40; experiment: ELISA, coated antigen IL-12p40, mOD at 450 nm; blank = coating antigen omitted [panel 20-4]
[10] = target: T4, IL-23p19; experiment: ELISA, coated antigen IL-23p19, mOD at 450 nm; blank = coating antigen omitted [panel 20-4]
[11] = target: T3, IL-12p40; experiment: ELISA, coated antigen IL-12p40, mOD at 450 nm; blank = coating antigen omitted [panel 6-22]
[12] = target: T4, IL-23p19; experiment: ELISA, coated antigen IL-23p19, mOD at 450 nm; blank = coating antigen omitted [panel 6-22]

| Binder | koff [1] [s⁻¹] | kon [2] [M⁻¹ s⁻¹] | binding result [3] | EC50 (read off the curve) [4] [µg/mL] | Kd [5] [nM] | koff [5] [s⁻¹] | IC50 (read off the curve) [6] [µg/mL] | Kd [2] [nM] | koff [2] [s⁻¹] | binding result [7] | binding result [8] | binding result [9] | binding result [10] | binding result [11] | binding result [12] |
| --- | --- | --- | --- | --- | --- | --- | --- | --- | --- | --- | --- | --- | --- | --- | --- |
| B1 | 5.98e-05 | 542000 | no binding (tested: 10 ug/ml) | ~0.09 | < 0.1 | < 1e-05 | ~0.04 |  |  |  |  |  |  |  |  |
| B2 | 0.000117 | 468000 |  |  |  |  |  | 0.421 | 0.000197 | no binding (tested: 10 ug/mL) | no binding (tested: 10 ug/mL) |  |  |  |  |
| B3 | 0.000191 | 521000 |  |  |  |  |  | 0.388 | 0.000202 |  |  |  |  |  |  |
| B4 | 0.000616 | 348000 |  |  |  |  |  | 2.11 | 0.000733 |  |  |  |  |  |  |
| B5 | 0.000231 | 429000 |  |  |  |  |  | 0.47 | 0.000202 |  |  | no binding (tested: 10 ug/mL) | no binding (tested: 10 ug/mL) |  |  |
| B6 | 0.000241 | 465000 |  |  |  |  |  | 0.86 | 0.0004 |  |  |  |  | no binding (tested: 10 ug/mL) | no binding (tested: 10 ug/mL) |
